Results on one substance are retold here after article PMC5655446.

Some results are limits rather than exact numbers.

The target in the assay is Vibrio cholerae ApbE (alternative pyrimidine biosynthesis protein), recombinant, without the leader sequence (Vibrio cholerae) (UniProt A5F5Y3).
Chain of Vibrio cholerae ApbE (alternative pyrimidine biosynthesis protein), recombinant, without the leader sequence (Vibrio cholerae) (A5F5Y3 18-334): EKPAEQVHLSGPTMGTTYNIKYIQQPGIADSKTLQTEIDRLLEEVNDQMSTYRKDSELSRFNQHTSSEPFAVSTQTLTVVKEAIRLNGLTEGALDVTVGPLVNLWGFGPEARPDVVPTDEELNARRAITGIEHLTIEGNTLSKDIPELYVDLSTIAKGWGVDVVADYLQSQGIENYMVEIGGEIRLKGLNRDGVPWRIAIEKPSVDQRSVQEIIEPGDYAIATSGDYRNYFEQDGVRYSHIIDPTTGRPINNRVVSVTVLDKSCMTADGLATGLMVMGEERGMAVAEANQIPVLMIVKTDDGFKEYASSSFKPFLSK

With “Vibrio cholerae NqrC (subunit C of Na+-NQR), soluble, without the N-terminal transmembrane helix (domain or fragment)”, the Km for NqrC in the steady-state flavin transfer activity of ApbE (NqrC varied, FAD 1 mM, pH 9.0) is more than 100 μM.
